Results from US20250346679A1 (INVOX PHARMA, published 2025).
Each block holds one binder with its values, some of them ahead of it.

Tests used:
FcgRIIB on CHO cells = target: T1, FcgRIIB on CHO cells (UniProt P31994 43-310); assay: flow cytometry on CHO cells over-expressing FcγRIIB, anti-human IgG AF-488 detection
T1 construct: whole, on cells; also called CHO.FcγRIIB
T1 sequence (looked up): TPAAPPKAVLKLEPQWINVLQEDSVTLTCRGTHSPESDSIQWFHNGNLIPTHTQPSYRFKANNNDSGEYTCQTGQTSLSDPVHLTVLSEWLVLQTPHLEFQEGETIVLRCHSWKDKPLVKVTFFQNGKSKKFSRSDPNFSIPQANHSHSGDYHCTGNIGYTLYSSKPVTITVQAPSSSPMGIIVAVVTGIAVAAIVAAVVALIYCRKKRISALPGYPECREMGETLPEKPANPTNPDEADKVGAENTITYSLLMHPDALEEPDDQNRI
Description: (§1) However, in order to circumnavigate potential off-target effects such as systemic CD137 activation due to crosslinking by Fcγ receptor binding and to decrease the possibility of inducing ADCC of immune cells, for example T cells, that express both targets, it was decided to decrease the Fcγ receptor binding ability of the anti-human CD137/PD-L1 mAb² by introduction of a LALA mutation in the CH2 domain (see Example 3.2 for details on the LALA format).
(§2) Briefly, CHO.FcγRIIA.131H, […], CHO.FcγRIIIA.158F, CHO.FcγRIIIA.158V, CHO.FcγRIIB, or CHO.WT suspensions were prepared in FACS buffer (DPBS containing (Gibco, 14190-094) containing 0.5% BSA (Sigma, A7906)) and seeded at 1×10⁵ cell/well in 100 μl in round bottomed 96-well plates (VWR, 734-1797). […] The washed cells were resuspended in the diluted antibody mixture, incubated at 4° C. for 30 minutes, and then washed once in FACS buffer. […] The geometric mean fluorescence intensity (GMFI) values were plotted vs the log concentration of antibody and the resulting curves were fitted using the log (agonist) vs response equation in GraphPad Prism.

[1] = target: T2, FcgRIIA 131H on CHO cells (UniProt P12318 34-317, limits assumed); assay: flow cytometry on CHO cells over-expressing FcγRIIA 131H, anti-human IgG AF-488 detection
T2 construct: whole, on cells; also called CHO.FcγRIIA.131H
T2 sequence (looked up): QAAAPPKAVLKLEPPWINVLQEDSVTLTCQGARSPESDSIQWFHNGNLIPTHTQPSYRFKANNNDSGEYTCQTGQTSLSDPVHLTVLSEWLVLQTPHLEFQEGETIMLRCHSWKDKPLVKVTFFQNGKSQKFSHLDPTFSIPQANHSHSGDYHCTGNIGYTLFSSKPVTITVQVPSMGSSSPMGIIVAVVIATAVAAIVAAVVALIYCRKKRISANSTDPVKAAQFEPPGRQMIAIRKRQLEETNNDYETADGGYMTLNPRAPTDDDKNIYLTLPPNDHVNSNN
Description: as §1, §2

[2] = target: T3, FcgRIIIA 158F on CHO cells (UniProt P08637 17-254, limits assumed); assay: flow cytometry on CHO cells over-expressing FcγRIIIA 158F, anti-human IgG AF-488 detection
T3 construct: whole, on cells; also called CHO.FcγRIIIA.158F
T3 sequence (P08637 17-254 limits assumed): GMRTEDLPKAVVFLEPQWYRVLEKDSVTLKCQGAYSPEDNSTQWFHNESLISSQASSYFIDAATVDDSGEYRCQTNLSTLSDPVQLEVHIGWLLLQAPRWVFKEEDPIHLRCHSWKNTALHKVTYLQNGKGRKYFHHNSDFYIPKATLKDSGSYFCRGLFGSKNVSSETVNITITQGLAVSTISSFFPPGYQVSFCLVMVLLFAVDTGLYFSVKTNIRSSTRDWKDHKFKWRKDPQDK
Description: as §1, §2

[3] = target: T4, FcgRIIIA 158V on CHO cells (UniProt P08637 17-254); assay: flow cytometry on CHO cells over-expressing FcγRIIIA 158V, anti-human IgG AF-488 detection
T4 construct: whole, on cells; also called CHO.FcγRIIIA.158V
T4 sequence (P08637 17-254 F176V limits assumed): as the sequence (P08637 17-254 limits assumed) above, with F160V counted along it
Description: as §1, §2

[4] = target: mouse CD137, cell-surface (mouse, UniProt P20334 24-256); assay: cell-based or functional assay
mouse CD137, cell-surface, sequence (P20334 24-256): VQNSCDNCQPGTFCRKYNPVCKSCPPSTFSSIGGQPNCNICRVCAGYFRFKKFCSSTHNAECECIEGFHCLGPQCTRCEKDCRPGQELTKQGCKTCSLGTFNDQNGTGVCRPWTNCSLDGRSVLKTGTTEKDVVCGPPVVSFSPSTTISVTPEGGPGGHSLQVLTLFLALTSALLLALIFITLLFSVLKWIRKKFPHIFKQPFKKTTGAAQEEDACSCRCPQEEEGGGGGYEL

[5] = target: T5, human CD137, cell-surface (human, UniProt Q07011 24-255); assay: cell-based or functional assay
[6] = target: T6, cynomolgus CD137, cell-surface (cynomolgus, UniProt Q07011 24-255 (human entry)); assay: flow cytometry on DO11.10.cCD137
T6 construct: also called DO11.10.cCD137; CD137 on cynomolgus T cells
T6 chain: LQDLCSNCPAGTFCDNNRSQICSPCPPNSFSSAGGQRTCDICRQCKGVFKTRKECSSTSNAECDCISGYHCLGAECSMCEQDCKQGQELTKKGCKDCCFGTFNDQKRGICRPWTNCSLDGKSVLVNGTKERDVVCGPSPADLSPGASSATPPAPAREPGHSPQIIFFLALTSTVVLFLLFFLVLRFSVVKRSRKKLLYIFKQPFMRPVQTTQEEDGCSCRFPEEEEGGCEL
Procedure: (§3) Non-specific binding was also assessed by testing binding to DO11.10 cells lacking CD137 expression.
(§4) Briefly, DO11.10, DO11.10.hCD137 or DO11.10.cCD137 suspensions were prepared in FACS buffer (DPBS containing (Gibco, 14190-094) containing 0.5% BSA (Sigma, A7906)) and seeded at 1×10⁵ cell/well in 100 μl in round bottomed 96-well plates (VWR, 734-1797). […] The washed cells were resuspended in the diluted antibody mixture, incubated at 4° C. for 30 minutes, and then washed once in FACS buffer. […] Dead cells were excluded and the fluorescence in the APC channel (638 nm 660/20) was measured. The geometric mean fluorescence intensity (GMFI) values were plotted vs the log concentration of antibody and the resulting curves were fitted using the log (agonist) vs response equation in GraphPad Prism.

[7] = target: T5, human CD137, cell-surface; assay: flow cytometry on DO11.10.hCD137; DO11.10 cells overexpressing human CD137 (DO11.10.hCD137)
Procedure: as §3, §4

[8] = target: human PD-L1, cell-surface (human, UniProt Q9NZQ7 19-290); assay: cell-based or functional assay
human PD-L1, cell-surface, sequence (Q9NZQ7 19-290): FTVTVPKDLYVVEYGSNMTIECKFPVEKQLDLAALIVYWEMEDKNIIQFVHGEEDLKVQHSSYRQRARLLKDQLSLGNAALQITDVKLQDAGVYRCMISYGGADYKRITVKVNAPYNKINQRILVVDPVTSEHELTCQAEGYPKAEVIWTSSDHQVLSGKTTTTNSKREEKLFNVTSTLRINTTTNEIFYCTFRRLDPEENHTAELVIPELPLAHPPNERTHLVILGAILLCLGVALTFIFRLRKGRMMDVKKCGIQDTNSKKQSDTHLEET

hPD-L1-rCD4-His [9] = target: T7, hPD-L1-rCD4-His (human); assay: SPR, culture supernatants
T7 construct: also called human PD-L1-rCD4-His; hu-PD-L1-rCD4-His
T7 sequence (chain, as listed by the source): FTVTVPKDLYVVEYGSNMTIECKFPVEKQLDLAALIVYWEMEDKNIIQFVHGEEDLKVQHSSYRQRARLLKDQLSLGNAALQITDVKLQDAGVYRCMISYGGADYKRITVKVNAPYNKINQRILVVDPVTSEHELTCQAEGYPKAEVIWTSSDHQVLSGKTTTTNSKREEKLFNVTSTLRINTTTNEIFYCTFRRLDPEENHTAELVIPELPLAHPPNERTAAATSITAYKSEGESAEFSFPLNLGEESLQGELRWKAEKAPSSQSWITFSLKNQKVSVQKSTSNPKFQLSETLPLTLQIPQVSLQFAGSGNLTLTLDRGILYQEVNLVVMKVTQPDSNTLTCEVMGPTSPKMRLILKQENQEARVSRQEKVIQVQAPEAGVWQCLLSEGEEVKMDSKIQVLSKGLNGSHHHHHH

hPD-L1-rCD4-His [10] = target: T7, hPD-L1-rCD4-His; assay: SPR
Cyno PD-L1-rCD4-His = target: T8, Cyno PD-L1-rCD4-His (cynomolgus, UniProt Q9NZQ7 19-238 (human entry)); assay: SPR
T8 construct: also called cynomolgus PD-L1-rCD4-His; not shown: rat CD4 domains 3 and 4 and His tag
T8 sequence (Q9NZQ7 other isoform, or with tags, fused parts or gaps): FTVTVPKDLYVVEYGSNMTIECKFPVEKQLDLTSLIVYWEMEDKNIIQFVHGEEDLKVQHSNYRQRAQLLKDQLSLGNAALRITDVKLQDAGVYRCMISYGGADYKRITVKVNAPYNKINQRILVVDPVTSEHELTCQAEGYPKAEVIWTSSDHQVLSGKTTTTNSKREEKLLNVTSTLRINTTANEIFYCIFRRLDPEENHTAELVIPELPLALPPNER

B1: G1/4420 (antibody, human IgG1, kappa)
heavy: not shown
light: DVVMTQTPLSLPVSLGDQASISCRSSQSLVHSNGNTYLRWYLQKPGQSPKVLIYKVSNRFSGVPDRFSGSGSGTDFTLKISRVEAEDLGVYFCSQSTHVPWTFGGGTKLEIKRTVAAPSVFIFPPSDEQLKSGTASVVCLLNNFYPREAKVQWKVDNALQSGNSQESVTEQDSKDSTYSLSSTLTLSKADYEKHKVYACEVTHQGLSSPVTKSFNRGEC
- binding result (FcgRIIB on CHO cells): binds
- binding result [1]: binds
- binding result [2]: binds
- binding result [3]: binds

B3: FS22-172-003-AA/HeID1.3 (bispecific antibody, human IgG1, kappa, L234A L235A)
heavy: QVQLQESGPGLVRPSQTLSLTCTVSGSTFSGYGVNWVRQPPGRGLEWIGMIWGDGNTDYNSALKSRVTMLVDTSKNQFSLRLSSVTAADTAVYYCARERDYRLDYWGQGSLVTVSSASTKGPSVFPLAPSSKSTSGGTAALGCLVKDYFPEPVTVSWNSGALTSGVHTFPAVLQSSGLYSLSSVVTVPSSSLGTQTYICNVNHKPSNTKVDKKVEPKSCDKTHTCPPCPAPEAAGGPSVFLFPPKPKDTLMISRTPEVTCVVVDVSHEDPEVKFNWYVDGVEVHNAKTKPREEQYNSTYRVVSVLTVLHQDWLNGKEYKCKVSNKALPAPIEKTISKAKGQPREPQVYTLPPSRDELPYIIPPYNQVSLTCLVKGFYPSDIAVEWESNGQPENNYKTTPPVLDSDGSFFLYSKLTVGADRWLEGNVFSCSVMHEALHNHYTQKSLSLSPG
light: DIQMTQSPASLSASVGETVTITCRASGNIHNYLAWYQQKQGKSPQLLVYNAKTLADGVPSRFSGSGSGTQYSLKINSLQPEDFGSYYCQHFWSTPRTFGGGTKLEIKRTVAAPSVFIFPPSDEQLKSGTASVVCLLNNFYPREAKVQWKVDNALQSGNSQESVTEQDSKDSTYSLSSTLTLSKADYEKHKVYACEVTHQGLSSPVTKSFNRGEC
notes: mock mAb^2 with LALA
- Emax (pg/ml), IFN-γ release, human MLR (EC50 N/A) [5]: 3570 pg/mL
- EC50 [6]: 9.09 nM
- EC50 [7]: 6.25 nM

B5: G1/929_01_A11 (antibody, IgG1, V domains shown)
VH: EVQLVQSGAEVKRPGASVKVSCKASGYTFTSYGISWVRQAPGQGLEWMGWISAYSGGTNYAQKLQGRVTMTTDTSTSTAYMELRSLRSDDTAVYYCARDLFPTIFGVSYYYYWGQGTLVTVSS
VL: DIQMTQSPSTLSASVGDRVTITCRASQSISGRLAWYQQKPGKAPNLLIYEASNLESGVPSRFSGSGSGTEFTLTISSLQPEDFATYYCQQSYSWPRTFGQGTKVEIK
notes: IgG1 without LALA
- binding result (hPD-L1-rCD4-His [9]): binds

More lines, now with the values ahead:

- Emax (pg/ml), mIFN-γ release, OT-1 CD8+ T cell activation assay (EC50 n/a) [4]: 3850 pg/mL
B2: FS22m-063-AA/HeID1.3 (bispecific antibody, human IgG1, kappa, L234A L235A)
heavy: QVQLQESGPGLVRPSQTLSLTCTVSGSTFSGYGVNWVRQPPGRGLEWIGMIWGDGNTDYNSALKSRVTMLVDTSKNQFSLRLSSVTAADTAVYYCARERDYRLDYWGQGSLVTVSSASTKGPSVFPLAPSSKSTSGGTAALGCLVKDYFPEPVTVSWNSGALTSGVHTFPAVLQSSGLYSLSSVVTVPSSSLGTQTYICNVNHKPSNTKVDKKVEPKSCDKTHTCPPCPAPEAAGGPSVFLFPPKPKDTLMISRTPEVTCVVVDVSHEDPEVKFNWYVDGVEVHNAKTKPREEQYNSTYRVVSVLTVLHQDWLNGKEYKCKVSNKALPAPIEKTISKAKGQPREPQVYTLPPSRDEPYWSYVSLTCLVKGFYPSDIAVEWESNGQPENNYKTTPPVLDSDGSFFLYSKLTVMNYRWELGNVFSCSVMHEALHNHYTQKSLSLSPG
light: DIQMTQSPASLSASVGETVTITCRASGNIHNYLAWYQQKQGKSPQLLVYNAKTLADGVPSRFSGSGSGTQYSLKINSLQPEDFGSYYCQHFWSTPRTFGGGTKLEIKRTVAAPSVFIFPPSDEQLKSGTASVVCLLNNFYPREAKVQWKVDNALQSGNSQESVTEQDSKDSTYSLSSTLTLSKADYEKHKVYACEVTHQGLSSPVTKSFNRGEC

- EC50, luciferase, Jurkat-NFAT PD-1 / PD-L1 cell co-culture assay [8]: 4.2 nM
B4: G1/280_02_G02 (antibody, human IgG1, V domains shown)
VH: EVQLVQSGAEVKRPGASVKVSCKASGYTFTSYGISWVRQAPGQGLEWMGWISAYNGNTNYAQKLQGRVTMTTDTSTSTAYMELRSLRSDDTAVYYCARDLFPTIFGVSYYYYWGQGTLVTVSS
VL: QSALTQPASVSGSPGQSITISCTGTSSDVGGYNSVSWYQQFPGKAPKLMIFEVTNRPSGVSDRFSGSKSDNTASLTISGLQAEDEAEYYCSSFKRGSTLVVFG

- fold lower affinity than G1-AA/E12v2 (hPD-L1-rCD4-His [10]): > 10 fold
- fold lower affinity than G1-AA/E12v2 (Cyno PD-L1-rCD4-His): > 10 fold
B6: G1/929_01_A02 (antibody, IgG1, V domains shown)
VH: EVQLVQSGAEVKRPGASVKVSCKASGYTFTSYGISWVRQAPGQGLEWMGWISAYSGGTNYAQKLQGRVTMTTDTSTSTAYMELRSLRSDDTAVYYCARDLFPTIFGVSYYYYWGQGTLVTVSS
VL: DIQMTQSPSTLSASVRDRVIITCRASQSIGNRLAWYQHKPGKAPKLLIYEASTSETGVPSRFSGSGSGTDFTLTISSLQPEDFATYYCQQSYSTPYTFGQGTKLEIK
notes: IgG1 without LALA
